Laboratory results from PMC3183026 (Molecular Biology of the Cell, 2011).

Biological target: DCC (endogenous, embryonic rat cortical neurons) (rat (endogenous in E18 cortical neurons), UniProt Q63155 26-1445)
Assay: co-IP

Chain of DCC (endogenous, embryonic rat cortical neurons) (Q63155 26-1445): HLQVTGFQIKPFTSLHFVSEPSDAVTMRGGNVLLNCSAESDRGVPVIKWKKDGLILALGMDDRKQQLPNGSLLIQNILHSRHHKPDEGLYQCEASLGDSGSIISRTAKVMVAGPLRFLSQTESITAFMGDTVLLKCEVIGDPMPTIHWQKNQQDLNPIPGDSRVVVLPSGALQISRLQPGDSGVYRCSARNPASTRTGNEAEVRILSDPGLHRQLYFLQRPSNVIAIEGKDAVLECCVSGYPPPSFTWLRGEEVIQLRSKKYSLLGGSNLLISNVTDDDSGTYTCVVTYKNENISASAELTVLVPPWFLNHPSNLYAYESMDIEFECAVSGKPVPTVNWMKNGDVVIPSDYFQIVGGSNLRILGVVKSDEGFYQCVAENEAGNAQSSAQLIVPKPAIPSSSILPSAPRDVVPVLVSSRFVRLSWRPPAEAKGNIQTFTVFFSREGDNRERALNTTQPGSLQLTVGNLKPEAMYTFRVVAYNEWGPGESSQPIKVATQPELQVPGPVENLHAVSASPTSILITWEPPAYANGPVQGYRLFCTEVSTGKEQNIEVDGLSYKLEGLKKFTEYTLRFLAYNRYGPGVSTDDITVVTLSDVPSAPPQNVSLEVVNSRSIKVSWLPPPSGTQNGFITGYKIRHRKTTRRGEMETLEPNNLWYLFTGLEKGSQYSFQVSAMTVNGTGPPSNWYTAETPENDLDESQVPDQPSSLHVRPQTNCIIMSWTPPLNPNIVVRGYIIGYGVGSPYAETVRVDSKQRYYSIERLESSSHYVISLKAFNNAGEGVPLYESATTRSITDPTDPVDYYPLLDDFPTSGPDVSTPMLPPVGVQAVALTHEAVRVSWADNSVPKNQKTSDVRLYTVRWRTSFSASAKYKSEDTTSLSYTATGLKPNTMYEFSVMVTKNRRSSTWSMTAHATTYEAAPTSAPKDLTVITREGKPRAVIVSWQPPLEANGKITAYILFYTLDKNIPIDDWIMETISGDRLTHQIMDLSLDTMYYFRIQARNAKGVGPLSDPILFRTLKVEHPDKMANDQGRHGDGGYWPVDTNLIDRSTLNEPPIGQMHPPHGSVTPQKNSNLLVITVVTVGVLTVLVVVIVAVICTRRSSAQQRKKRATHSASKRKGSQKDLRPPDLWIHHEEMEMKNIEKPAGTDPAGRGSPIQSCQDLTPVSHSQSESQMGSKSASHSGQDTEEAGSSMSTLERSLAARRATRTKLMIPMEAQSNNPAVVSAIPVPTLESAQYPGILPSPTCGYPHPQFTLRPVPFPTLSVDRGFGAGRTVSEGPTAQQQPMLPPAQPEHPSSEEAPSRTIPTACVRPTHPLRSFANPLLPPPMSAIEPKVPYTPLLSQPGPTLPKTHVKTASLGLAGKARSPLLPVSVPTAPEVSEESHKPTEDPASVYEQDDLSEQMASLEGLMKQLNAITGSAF

B1: ezrin (endogenous, embryonic rat cortical neurons) (natural protein)
chain: MPKPINVRVTTMDAELEFAIQPNTTGKQLFDQVVKTIGLREVWYFGLQYVDNKGFPTWLKLDKKVSAQEVRKENPVQFKFRAKFYPEDVADELIQDITQKLFFLQVKEGILSDEIYCPPETAVLLGSYAVQAKFGDYNKEMHKSGYLSSERLIPQRVMDQHKLSRDQWEDRIQVWHAEHRGMLKDSAMLEYLKIAQDLEMYGINYFEIKNKKGTDLWLGVDALGLNIYEKDDKLTPKIGFPWSEIRNISFNDKKFVIKPIDKKAPDFVFYAPRLRINKRILQLCMGNHELYMRRRKPDTIEVQQMKAQAREEKHQKQLERQQLETEKKRRETVEREKEQMLREKEELMLRLQDFEQKTKRAEKELSEQIEKALQLEEERRRAQEEAERLEADRMAALRAKEELERQAQDQIKSQEQLAAELAEYTAKIALLEEARRRKEDEVEEWQHRAKEAQDDLVKTKEELHLVMTAPPPPPPPVYEPVNYHVQEGLQDEGAEPMGYSAELSSEGILDDRNEEKRITEAEKNERVQRQLLTLSNELSQARDENKRTHNDIIHNENMRQGRDKYKTLRQIRQGNTKQRIDEFEAM
- fold increase relative to unstimulated neurons: 6 fold
